Source: the RNAGym collection of RNA variant scans (doi:10.1101/gr.219683.116)

B1: mRNA-splicing (parent)
chain: AGUUGCUGCUGGGAGCUCCAGCACAGUGAAAUGGACAGAAGGGCAGAGCAA

Variants of: B1
Assay: exon inclusion enrichment index; higher = more inclusion; WT1 exon 5 minigene, HEK293

Row | Variant | exon inclusion enrichment index
1 | AGUUGACGACGGGAGCUCCAGCACAGUGCAAUGGACAGAAGGGCAGAGCAA [C6A U7C C9A U10C A29C] | 3.21
2 | AGUGUACGACGGGAGCUCCAGCACAGUGAAAUGGACAGAAGGGCAGAGCAA [U4G G5U C6A U7C C9A U10C] | 2.56
3 | AGUUUCUUUUGGGAGCUCCAGCAGUGUGAAAUGGACAGAAGGGCAGAGCAA [G5U G8U C9U C24G A25U] | 0.208
4 | AGUUAGGGAUGGGUGCUCCAGCACAGUGAAAUGGACAGAAGGGCAGAGCAA [G5A C6G U7G C9A A14U] | 0.000641
5 | AGUUCACACACGGAGCUCCAGCACAGUGAAAUGGACAGAAGGGCAGAGCAA [G5C C6A U7C G8A U10A G11C] | 0.99
6 | AGUUGAUUUUGGGAGCUCCAGCACAGUGAAAUGGACAGAAGGGCAGAGCAA [C6A G8U C9U] | 0.134
7 | AGUUUUCACCGGGAGCUCCAGCACAGUGAAAUGGACAGAAGGGCAGAGCAA [G5U C6U U7C G8A U10C] | 1.85
8 | AGAGAUAUAUGGGAGCUCCAGCACAGUGAAAUGGACAGAAGGGCAGAGCAA [U3A U4G G5A C6U U7A G8U C9A] | 0.0692
9 | AGUUGAAGAAGCUAGCUCCAGCACAGUGAAAUGGACAGAAGGGCAGAGCAA [C6A U7A C9A U10A G12C G13U] | 0.355
10 | AGUUCACACAGGGAGCUCCAGCACAGUGAAAUGGAGGGAAGGGCAGAGCAA [G5C C6A U7C G8A U10A C36G A37G] | 0.00352
11 | AGUUGACGACGGGAGCUCCAGCACAGUGAAAUGGACAUCAGGGCAGAGCAA [C6A U7C C9A U10C G38U A39C] | 2.79
12 | AGUUGCUGCUGGGAGCUCCAGCACAGUGAUAUGGACAGAAGGGCAGAGCAA [A30U] | 0.0645
13 | AGUUAGGGAUGGGAGCUCCAGCACAGUGACAUGGACAGAAGGGCAGAGCAA [G5A C6G U7G C9A A30C] | 0.00196
14 | AGUUGACGACGGGAGCUCCAGCACAGUGAAAUGGACAGGUGGGCAGAGCAA [C6A U7C C9A U10C A39G A40U] | 0.497
15 | AGUUCACACAGAAAGCUCCAGCACAGUGAAAUGGACAGAAGGGCAGAGCAA [G5C C6A U7C G8A U10A G12A G13A] | 0.114
16 | AGUUCUUCUCGGGAGCUCCAGCACAGUGAAAUGGACAUGAGGGCAGAGCAA [G5C C6U G8C C9U U10C G38U A39G] | 0.734
17 | AGUUCGCGCCGGGAGCUCCAGCACAGUGAAAUGGACAGAAGGGGAGAGCAA [G5C C6G U7C U10C C44G] | 4.42
18 | AGUUGACGACGGGAGCUCCAGCACAGUGACGUGGACAGAAGGGCAGAGCAA [C6A U7C C9A U10C A30C A31G] | 3.94
19 | AGUUCACACAGGGAGCUCCAGCACAGUGAAAUGGACAGAAGGUCAGAGCAA [G5C C6A U7C G8A U10A G43U] | 0.0948
20 | AGUUAUAUAUGAGAGCUCCAGCACAGUGAAAUGGACAGAAGGGCAGAGCAA [G5A C6U U7A G8U C9A G12A] | 0.0361
21 | AGUUGCUGCUGGGAGCUCCAGCACAGUGAAAUGGACAGAAGGGCAGGACAA [A47G G48A] | 0.0368
22 | AGUUCGAGCCGGGAGCUCCAGCACAGUGAAAUGGACAGAAGGGCAGAGCAA [G5C C6G U7A U10C] | 2.53
23 | AGUUCUUCUCGGGAGCUCCAGCACAGUGAAAUGGACAGAAGGGCACUGCAA [G5C C6U G8C C9U U10C G46C A47U] | 1.64
24 | AGUUUUAUUUGGGAGCUCCAGCACAGUGAAAUGGACAGAAGGGCAGAGCAA [G5U C6U U7A G8U C9U] | 0.0321
25 | AGUUCUUCUCGGGAGCGUCAGCACAGUGAAAUGGACAGAAGGGCAGAGCAA [G5C C6U G8C C9U U10C U17G C18U] | 1.64
26 | AGUUUCUUUUGGGAGCUCCAGCACAGUGAAAUGGACAGAGGGGCAGAGCAA [G5U G8U C9U A40G] | 0.0867

Row | Variant | exon inclusion enrichment index
27 | AGUUGAAGAAGGGAGCUCCAGCACAGUGAAAUCAACAGAAGGGCAGAGCAA [C6A U7A C9A U10A G33C G34A] | 0.421
28 | AGUUGCUGCUGGGAGCUCCAGCACAGUGAAAUGGACAGAAGGGCAACGCAA [G46A A47C] | 0.547
29 | AGUUCACACAGGGAGCUCCAGCAAUGUGAAAUGGACAGAAGGGCAGAGCAA [G5C C6A U7C G8A U10A C24A A25U] | 0.146
30 | AGUUACCACCGGGAGCUCCAGCACAGUGAAUGGGACAGAAGGGCAGAGCAA [G5A U7C G8A U10C A31U U32G] | 1.32
31 | AGUUGACGACGGGAGCUCCAGCACAGUGAAAUGGACAGGAGGGCAGAGCAA [C6A U7C C9A U10C A39G] | 2.38
32 | AGUUCACACAGGGAAGUCCAGCACAGUGAAAUGGACAGAAGGGCAGAGCAA [G5C C6A U7C G8A U10A G15A C16G] | 0.0227
33 | AGUUUCUUUUGGGAGCUCCAGCACAGUGAAAUGGGUAGAAGGGCAGAGCAA [G5U G8U C9U A35G C36U] | 0.0033
34 | AGUUAUAUAUGGGAGCUCCAGCACAGUGGCAUGGACAGAAGGGCAGAGCAA [G5A C6U U7A G8U C9A A29G A30C] | 0.0104
35 | AGUUAUAUAUGGGAGCUCCAGCACAGUGAAAUGGACAGAAGCGCAGAGCAA [G5A C6U U7A G8U C9A G42C] | 0.399
36 | AGUUUCUUUUGGCCGCUCCAGCACAGUGAAAUGGACAGAAGGGCAGAGCAA [G5U G8U C9U G13C A14C] | 0.063
37 | AGUUCGCGCCGGCAGCUCCAGCACAGUGAAAUGGACAGAAGGGCAGAGCAA [G5C C6G U7C U10C G13C] | 1.53
38 | AGUUCACACAGGGAGCUCCAGCACAGUGAGGUGGACAGAAGGGCAGAGCAA [G5C C6A U7C G8A U10A A30G A31G] | 0.0207
39 | AGUUCUUCUCGGGAGCUCGUGCACAGUGAAAUGGACAGAAGGGCAGAGCAA [G5C C6U G8C C9U U10C C19G A20U] | 1.72
40 | AGUUAGGGAUGGGAGCCCCAGCACAGUGAAAUGGACAGAAGGGCAGAGCAA [G5A C6G U7G C9A U17C] | 0.00172
41 | AGUUGCUGCGGGGAGCUCCAGCACAGUGAAAUGGACAGAAGGGCAGAGCAA [U10G] | 1.82
42 | AGUUACCACCGGGAGCUCCAGCACAGUGAAAUGGACAGAAGGUCAGAGCAA [G5A U7C G8A U10C G43U] | 1.89
43 | AGUUCACACAGGGAGCUCAAGCACAGUGAAAUGGACAGAAGGGCAGAGCAA [G5C C6A U7C G8A U10A C19A] | 0.0348
44 | AGACGCUGCUGGGAGCUCCAGCACAGUGAAAUGGACAGAAGGGCAGAGCAA [U3A U4C] | 0.355
45 | AGUCGAAGAAGGGAGCUCCAGCACAGUGAAAUGGACAGAAGGGCAGAGCAA [U4C C6A U7A C9A U10A] | 1.51
46 | AGUUGCUGCUGGGAGCUCCAGCACAGUGAAAUGGACAGAAGGGCAGUUCAA [A47U G48U] | 0.125
47 | AGUUGAAGAAGGGAGCUCCAGCACAGUGAAAUGGACAGAAGGGCAGGGCAA [C6A U7A C9A U10A A47G] | 0.13
48 | AGUUGCUGCUGGGAGCUCCAGCACAGUGAAAUGGACAGAAGGGAUGAGCAA [C44A A45U] | 0.469
49 | AGUUAGGGAUGGGAGCUCCAGCUCAGUGAAAUGGACAGAAGGGCAGAGCAA [G5A C6G U7G C9A A23U] | 0.0012
50 | ACUUCGCGCCGGGAGCUCCAGCACAGUGAAAUGGACAGAAGGGCAGAGCAA [G2C G5C C6G U7C U10C] | 2.87
51 | AGUUAGGGAUGGAAGCUCCAGCACAGUGAAAUGGACAGAAGGGCAGAGCAA [G5A C6G U7G C9A G13A] | 0.0025
